# In patent US20060148030A1, “Nuclear receptor err y 3” (FUJISAWA PHARMACEUTICAL CO., LTD, priority 2002, published 2006):
# B1: ERRγ3: novel ERRγ isoform, nuclear receptor protein of 396 amino acids (SEQ ID NO: 2) lacking part of the DNA binding domain (protein, listed as Homo sapiens)
# chain: MSNKDRHIDSSCSSFIKTEPSSPASLTDSVNHHSPGGSSDASGSYSSTMNGHQNGLDSPPLYPSAPILGGSGPVRKLYDDCSSTIVEDPQTKCEYMLNSMPKRLCLVCGDIASGYHYGVASCEACKAFFKRTIQGVRLDRVRGGRQKYKRRIDAENSPYLNPQLAQPAKKPYNKIVSHLLVAEPEKIYAMPDPTVPDSDIKALTTLCDLADRELVVIIGWAKHIPGFSTLSLADQMSLLQSAWMEILILGVVYRSLSFEDELVYADDYIMDEDQSKLAGLLDLNNAILQLVKKYKSMKLEKEEFVTLKAIALANSDSMHIEDVEAVQKLQDVLHEALQDYEAGQHMEDPRRAGKMLMTLPLLRQTSTKAVQHFYNIKLEGKVPMHKLFLEMLEAKV
# Target: T1, PPARα (Homo sapiens, UniProt Q07869)
# T1 construct: expressed in transfected cells; host or cells: CV-1 (African green monkey kidney)
# T1 sequence (Q07869 1-468): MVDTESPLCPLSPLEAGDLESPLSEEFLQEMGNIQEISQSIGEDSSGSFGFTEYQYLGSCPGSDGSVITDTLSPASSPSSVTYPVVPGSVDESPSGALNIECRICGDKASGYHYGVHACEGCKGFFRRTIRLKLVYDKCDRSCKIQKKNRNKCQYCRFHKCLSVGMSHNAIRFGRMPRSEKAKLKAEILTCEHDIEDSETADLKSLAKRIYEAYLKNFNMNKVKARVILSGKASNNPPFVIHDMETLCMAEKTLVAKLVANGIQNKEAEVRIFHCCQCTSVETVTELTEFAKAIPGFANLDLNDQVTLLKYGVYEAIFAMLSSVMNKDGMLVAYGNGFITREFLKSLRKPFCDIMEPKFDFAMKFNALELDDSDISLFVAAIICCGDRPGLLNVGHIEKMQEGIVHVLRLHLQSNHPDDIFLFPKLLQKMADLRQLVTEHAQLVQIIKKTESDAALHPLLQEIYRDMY
# T1 sequence (P19793 1-462 partner): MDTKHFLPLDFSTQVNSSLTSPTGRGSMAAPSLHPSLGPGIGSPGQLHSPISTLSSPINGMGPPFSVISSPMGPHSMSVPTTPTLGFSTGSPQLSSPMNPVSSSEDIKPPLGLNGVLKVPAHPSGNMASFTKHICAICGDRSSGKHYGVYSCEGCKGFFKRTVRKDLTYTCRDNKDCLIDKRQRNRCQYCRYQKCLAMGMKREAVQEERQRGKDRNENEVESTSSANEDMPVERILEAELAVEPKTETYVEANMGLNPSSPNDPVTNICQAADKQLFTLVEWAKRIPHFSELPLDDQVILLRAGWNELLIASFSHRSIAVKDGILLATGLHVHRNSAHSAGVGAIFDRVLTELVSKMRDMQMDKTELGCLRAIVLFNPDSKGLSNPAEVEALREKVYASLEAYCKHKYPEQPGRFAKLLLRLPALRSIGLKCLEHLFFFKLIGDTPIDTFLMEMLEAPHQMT
# Experiment: Reporter gene assay, ERRγ3 coexisted with PPARα, pGVP2-PPRE1 in CV-1 cells
# Assay type: cell-based
# Settings: 10^−5 M bezafibrate, FIG. 24
# Experimental: Transfection was performed as follows: CV-1 cells were resuspended in DMEM supplemented with 10% fetal bovine serum, 2000 U/l of penicillin G, and 100 mg/l of streptomycin to a concentration of 2×10^5 cells/2.5 ml. This was then seeded to a 6-well plate at 2.5 ml per well, and incubated for 18-24 hours in a CO2 incubator at 37° C. and 5% CO2. 1 μg of each of the expression plasmids for the transcription factors, the luciferase reporter plasmid, and another luciferase reporter plasmid used for normalization of the measured values (pRL-TK), were dissolved in Opti-MEM (Gibco BRL), to a total of 150 μl. […] Luciferase activity was measured using the Dual-Luciferase™ Reporter Assay System (Promega). […] The protocol for measurement was as follows: 50 μl of Luciferase Assay Reagent II was added to each well, stirred for 0.3 seconds, and measured for one second. 50 μl of Stop&Glo™ Reagent was then added, stirred for 0.3 seconds, and measured for one second. The measured values for firefly luciferase activity were corrected by dividing by the value for the Renilla luciferase activity, the internal control. Average values and standard errors were calculated from triplicate samples.
# The effect of ligands on the function of ERRγ3 in enhancing the transcriptional activation function of peroxisome proliferator activated receptor (PPAR) α, β, or γ was evaluated using the reporter gene assay (FIG. 24). […]
molecule,measurement,value
B1,modifying effect on the transcriptional stimulation activity of PPARα,did not show any significant modifying effect
